The record followed here is patent CN109627340A (UNIV SHANGHAI JIAOTONG; JECHO LABORATORIES INC, dated 2019).

The target in this assay is T1, 人PRLR胞外结构域 (Sino Biological) (human, UniProt P16471 25-234).
T1 construct: Bought recombinant protein (Sino Biological); also called PRLR胞外区; PRLR ECD
T1 sequence (looked up): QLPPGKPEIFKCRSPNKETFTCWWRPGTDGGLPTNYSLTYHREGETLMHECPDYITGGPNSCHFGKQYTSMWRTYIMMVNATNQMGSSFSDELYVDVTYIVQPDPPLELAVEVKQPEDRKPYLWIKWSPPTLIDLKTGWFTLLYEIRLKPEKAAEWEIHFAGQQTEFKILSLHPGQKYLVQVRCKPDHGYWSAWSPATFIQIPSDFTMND
Nature of the assay: SPR, Biacore T200, antigen amine-coupled to CM5 chip.

B1: PRLR-DbsAb (CD3×PRLR双特异性抗体) (bispecific antibody, human IgG1, kappa)
heavy 1: not shown
light 1: DIQMTQSPSSLSASVGDRVTITCSASSSVSYMNWYQQTPGKAPKRWIYDTSKLASGVPSRFSGSGSGTDYTFTISSLQPEDIATYYCQQWSSNPFTFGQGTKLQITRTVAAPSVFIFPPSDEQLKSGTASVVCLLNNFYPREAKVQWKVDNALQSGNSQESVTEQDSKDSTYSLSSTLTLSKADYEKHKVYACEVTHQGLSSPVTKSFNRGEC
heavy 2: not shown
light 2: not shown
notes: also called PRLR-DsbAb; CD3和PRLR双特异性抗体
The molecule B1 registered a Kd of 2.31 nM, a koff of 0.000679 s⁻¹ and a kon of 294000 M⁻¹ s⁻¹.
